Results on 2 molecules are retold here after article PMC3636572.

Data set [1] deals with T1, prothrombin (Homo sapiens, UniProt P00734 44-622). The data set is described as follows: filter binding.
In a further data set the target is porcine thrombin (pig, UniProt Q19AZ8;Q19AZ8 316-364;365-623). As to the kind of experiment: filter binding.
The next data set concerns the target beta-thrombin (UniProt P00734;P00734;P00734 328-363;364-425;437-622). As to the kind of experiment: filter binding.
In data set [2] the target is T1, prothrombin. As to the kind of experiment: SPR. (In general: Surface plasmon resonance follows binding to a sensor surface in real time, without labels.)

One may read the Kd as the concentration at which binding is half-saturated. The low end stands for tighter binding, the high end for weaker binding.

B1: RNAR9D-14T (XNA)
RNA: GGCGGUCGAUCACACAGUUCAAACGUAAUAAGCCAAUGUACGAGGCAGACGACUCGCC
modifications: 2'-fluoro on all C and U; purines 2'-OH
B1: the results for the dissociation constant (Kd) in the data set with prothrombin [1], in the data set with porcine thrombin and with beta-thrombin were 10 nM, 5 nM and 20 nM, respectively.

B2: biotin-RNAR9D-14T (XNA)
RNA: B1 RNA
modifications: 2'-fluoro on all C and U; purines 2'-OH
Take B2: binding with prothrombin [2] was characterised by a dissociation constant (Kd) of 1.4 nM.
